Results on 94 variants are retold here after the supplement of paper PMC10567573.

B1: PLAGL1 (parent)
chain: LELGSTEVLLDHLKAHAEEKPPSG
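Note: lentivirally expressed fusions sorted by FACS into six bins by GFP to DsRed ratio, PSI derived from sequencing read proportions per bin multiplied by bin number.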

The variants in this series derive from B1. The series is described as follows: protein stability index of a GFP-peptide fusion (GPS, HEK-293T) (PSI 1-6); higher = more stable. The conditions noted are these: c terminus: a fixed tail appended.
On to LELGSTEVLLDHLKAHAEVKPPSG, for which the protein stability index came to 3.27.

As for LELGSTEVLLDHLKAHAERKPPSG, the protein stability index came to 3.58. Next, LELGSTEVLLDHLKAHAECKPPSG: 3.12; LELGSTEVLLDHLKAHAESKPPSG: 3.65; LELGSTEVLLDHLKAHAEFKPPSG: 2.33. For LELGSTEVLLDHLKAHAEIKPPSG the value was 3.14; for LELGSTEVLLDHLKAHAEQKPPSG, 3.89; for LELGSTEVLLDHLKAHAEAKPPSG, 3.73. Next, LELGSTEVLLDHLKAHAELKPPSG: 2.64. With LELGSTEVLLDHLKAHAEYKPPSG, the protein stability index was 3.32. For LELGSTEVLLDHLKAHAETKPPSG the value was 3.55.

For the variant LELGSTEVLLDHLKAHAEHKPPSG, the protein stability index stood at 3.61. Next, LELGSTEVLLDHLKAHAENKPPSG: 4.03; LELGSTEVLLDHLKAHAEDKPPSG: 4.48; LELGSTEVLLDHLKAHAEKKPPSG: 3.55. For the variant LELGSTEVLLDHLKAHAEWKPPSG, the protein stability index stood at 3.23. For LELGSTEVLLDHLKAHAEPKPPSG the value was 4.28; for LELGSTEVLLDHLKAHAEGKPPSG, 2.45. For LELGSTEVLLDHLKAHAEMKPPSG the value was 3.41; for LELGSTEVLLDHLKAHAEESPPSG, 4.21. Turning to LELGSTEVLLDHLKAHAEERPPSG, the protein stability index stood at 4.26. On to LELGSTEVLLDHLKAHAEEIPPSG, for which the protein stability index was determined as 3.71. With LELGSTEVLLDHLKAHAEELPPSG, the protein stability index was determined as 3.9. For LELGSTEVLLDHLKAHAEENPPSG the value was 4.58; for LELGSTEVLLDHLKAHAEEWPPSG, 4.06. Next, LELGSTEVLLDHLKAHAEECPPSG: 4.

As to LELGSTEVLLDHLKAHAEEQPPSG, the protein stability index was 3.56. For LELGSTEVLLDHLKAHAEETPPSG the value was 4.86; for LELGSTEVLLDHLKAHAEEAPPSG, 4.56. For LELGSTEVLLDHLKAHAEEVPPSG the value was 4.41. For LELGSTEVLLDHLKAHAEEMPPSG the value was 4.01; for LELGSTEVLLDHLKAHAEEFPPSG, 2.9. Turning to LELGSTEVLLDHLKAHAEEHPPSG, the protein stability index was 3.59. Turning to LELGSTEVLLDHLKAHAEEPPPSG, the protein stability index stood at 4.88. Next, LELGSTEVLLDHLKAHAEEDPPSG: 4.64. For LELGSTEVLLDHLKAHAEEGPPSG the value was 4.22; for LELGSTEVLLDHLKAHAEEYPPSG, 3.6; for LELGSTEVLLDHLKAHAEEEPPSG, 5.18. Next, LELGSTEVLLDHLKAHAEEKPPIG: 4.1; LELGSTEVLLDHLKAHAEEKPPEG: 4.89. For the variant LELGSTEVLLDHLKAHAEEKPPVG, the protein stability index turned out to be 4.34. For LELGSTEVLLDHLKAHAEEKPPMG the value was 4.15.

On to LELGSTEVLLDHLKAHAEEKPPLG, for which the protein stability index came out at 4.22. Next, LELGSTEVLLDHLKAHAEEKPPCG: 4.35; LELGSTEVLLDHLKAHAEEKPPQG: 4.71; LELGSTEVLLDHLKAHAEEKPPWG: 3.22. On to LELGSTEVLLDHLKAHAEEKPPNG, for which the protein stability index came out at 4.47. Next, LELGSTEVLLDHLKAHAEEKPPGG: 4.43; LELGSTEVLLDHLKAHAEEKPPHG: 4.17. Next, LELGSTEVLLDHLKAHAEEKPPTG: 4.17.

For LELGSTEVLLDHLKAHAEEKPPFG, the protein stability index was found to be 3.72. On to LELGSTEVLLDHLKAHAEEKPPPG, for which the protein stability index came out at 4.5.

Turning to LELGSTEVLLDHLKAHAEEKPPAG, the protein stability index was 3.76. Next, LELGSTEVLLDHLKAHAEEKPPYG: 3.79; LELGSTEVLLDHLKAHAEEKPPDG: 5.1.

LELGSTEVLLDHLKAHAEEKPPKG: the protein stability index was found to be 4.28. LELGSTEVLLDHLKAHAEEKPPRG: the protein stability index is 4.4. For LELGSTEVLLDHLKAHAEEKPPSK the value was 4.34; for LELGSTEVLLDHLKAHAEEKPPSC, 3.97. Turning to LELGSTEVLLDHLKAHAEEKPPSF, the protein stability index was 3.21. On to LELGSTEVLLDHLKAHAEEKPPSS, for which the protein stability index worked out at 4.46.

As to LELGSTEVLLDHLKAHAEEKPPSR, the protein stability index was determined as 4.21. Next, LELGSTEVLLDHLKAHAEEKPPSN: 4.54. Turning to LELGSTEVLLDHLKAHAEEKPPSA, the protein stability index was 4.66. Consider LELGSTEVLLDHLKAHAEEKPPSL, for which the protein stability index came to 3.51. For LELGSTEVLLDHLKAHAEEKPPSH the value was 4.47; for LELGSTEVLLDHLKAHAEEKPPSD, 4.91. For LELGSTEVLLDHLKAHAEEKPPSW the value was 3.23; for LELGSTEVLLDHLKAHAEEKPPSP, 4.9. For LELGSTEVLLDHLKAHAEEKPPSE the value was 4.68. With LELGSTEVLLDHLKAHAEEKPPSI, the protein stability index stood at 4.07. For LELGSTEVLLDHLKAHAEEKPPST the value was 4.18; for LELGSTEVLLDHLKAHAEEKPPSY, 3.7; for LELGSTEVLLDHLKAHAEEKPPSV, 3.88.

For the variant LELGSTEVLLDHLKAHAEEKPPSQ, the protein stability index was determined as 4.63. For LELGSTEVLLDHLKAHAEEKPPSM the value was 3.61. For LELGSTEVLLDHLKAHAEEKPYSG the value was 3.9; for LELGSTEVLLDHLKAHAEEKPGSG, 4.4.

LELGSTEVLLDHLKAHAEEKPSSG: the protein stability index worked out at 4.79. Next, LELGSTEVLLDHLKAHAEEKPESG: 5.08; LELGSTEVLLDHLKAHAEEKPDSG: 4.88; LELGSTEVLLDHLKAHAEEKPISG: 4.06. For LELGSTEVLLDHLKAHAEEKPNSG the value was 4.95; for LELGSTEVLLDHLKAHAEEKPMSG, 3.85. As for LELGSTEVLLDHLKAHAEEKPFSG, the protein stability index was 3.35. For LELGSTEVLLDHLKAHAEEKPVSG the value was 3.81; for LELGSTEVLLDHLKAHAEEKPKSG, 4.25. For LELGSTEVLLDHLKAHAEEKPTSG the value was 4.88; for LELGSTEVLLDHLKAHAEEKPHSG, 4.03. For LELGSTEVLLDHLKAHAEEKPCSG the value was 4.58. As for LELGSTEVLLDHLKAHAEEKPLSG, the protein stability index came out at 3.9. For LELGSTEVLLDHLKAHAEEKPRSG the value was 4.1; for LELGSTEVLLDHLKAHAEEKPASG, 4.49. Regarding LELGSTEVLLDHLKAHAEEKPQSG, the protein stability index is 4.85.
